Data published in patent publication US20230066984A1, “New Carbon Glycoside Glycosyltransferase and Use Thereof” (CAS Center for Excellence in Molecular Plant Sciences, priority 2020, published 2023).

B1: OsCGT2: C-glycosyltransferase from Japonica rice, SEQ ID NO: 5 (protein)
chain: MCSAATPNSGDVRATPGSSRPHVVLLPSAGMGHLVPFTRLAAALCSGHGCDVSLVAAVPTVSSAEARHLAAHFTAFPAVRRLELDLASLDVSEFAGADPFYVRYEAIRRSASLLAPLLAGGASAAASALVADIALASVVIPVAKDLRLPCYVFFTASATMFSFLAYLPTYLDANAGGGHAIGDVDVPGVCRVPTSSVPQALHDPDDIFTRQFIANARSLANADGLVVNAFDALEPEAVAALRQGTVAAGLPPVFAVGPLSPAPIPAKDSGSYLPWLDAQPARSVVYVSFGSRKALPRDQLSELAAGLEASGHRFLWVVKGAVVDRDDAGELTDLLGEAFLQRIHGRGLVTMAWVRQEEVLNHPSVGLFISHCGWNSVTEAAASGVPVVAWPRFADQRVNAGVVARAGIGVWVDTWSWEGEDDGVVSAEDIAGKVRSAMADEGVRKAAASVREAAARAVAAGGSSYRSLAELVRRCRDGLVITNGM
modifications: Oryza Sativa japonica
B2: OsCGT: C-glycosyltransferase from Japonica rice, SEQ ID NO: 19 (protein)
chain: MPSSGDAAGRRPHVVLIPSAGMGHLVPFGRLAVALSSGHGCDVSLVTVLPTVSTAESKHLDALFDAFPAVRRLDFELAPFDASEFPSADPFFLRFEAMRRSAPLLGPLLTGAGASALATDIALTSVVIPVAKEQGLPCHILFTASAAMLSLCAYFPTYLDANAGDGGGVGDVDIPGVYRIPKASIPQALHDPNHLFTRQFVANGRSLTSAAGILVNTFDALEPEAVAALQQGKVASGFPPVFAVGPLLPASNQAKDPQANYMEWLDAQPARSVVYVSFGSRKAISGEQLRELAAGLETSGHRFLWVVKSTVVDRDDAAELGELLGEGFLKRVEKRGLVTKAWVDQEEVLKHESVALFVSHCGWNSVTEAAASGVPVLALPRFGDQRVNSGVVARAGLGVWADTWSWEGEAGVIGAEEISEKVKAAMADEALRRKAASLAKAAAKAVAGGGSSHRCLVEFARLCQGGTCRTN
modifications: Oryza Sativa japonica
B3: SiCGT1: C-glycosyltransferase from millet, SEQ ID NO: 17 (protein, listed as Setaria italica)
chain: MPTSGDHSGARPHVVLLPSAGMGHLVPFGRLAVALSAGHGCDVSVAAVLPTVSSAEARHLEALFAAADPAVRRLDFRLAPFDASEFPGADPFFLRFEAMRRSAPLLGPLLATAGASAVVTDIVLASVVLPVARECGVPCYVLFTASAAMLAFCAHFPGYLDANSAAGRAGVVGDVDIPGVYRIPKSSVPQALHDPKHLFTQQFVANGRGLVDADGILVNTFDALEPEAVTALRKGKVVSSFPLVFAVGPLLPVMFPAKDPAGYMQWLDAQPARSVVYVSFGSRTAISPDQLLELAAGLEASGHRFLWVVKSTVVDRDDAGELGDLLGHGFLERVRGRALVTKGWVEQEEILQHGSVGLFVSHCGWNSVTEAAAFGVPVLAWPRFGDQRINAAVVTRGGLGAWEERWSWDGEEGLVSGEEVGEKIKAVMADETVAKKAAAVGDAAAAAATSKGGTSYRSLAEFVGRCRDAGSRQDR
B4: PpCGT1: C-glycosyltransferase from high knot bamboo, SEQ ID NO: 3 (protein, listed as Phyllostachys prominens)
chain: MPTSGSRTGGRPHVILLPSAGMGHLVPFSRLAVALSSGHGCDVSVVAVLPTVSAAESRHLQGLLDASPAVRRLDLHLAPFDESEFPGADPFFLRFEAMRRSAPLLGPLLADTGESALVTDIALASVVIPVAKEIHLPCYVLFTASAAMLSFCAYFPTYLDTNAGRVVGDVDIPGVYRIPKASIPQALHDRNHLFTRQFVANGQDLAKADGVLVNTFDALELEAVTALRQGSVAAGFPPVFSVGPLVTVNLPAGEAAKESGNDYMYWLDAQPARSVVYVSFGSRKAISRNQVRELAVGLEASGQRFLWVVKSTVVDRDDSAELSELLDEGFLERVQGRGLVTKAWVEQEEVLKHESIGLFISHCGWNSVTEAAASGVPVLAWPRFGDQRVNAGVVARGGLGVWVERWSWEGEEGVVSGEEIAEKVKAVMADETVRKKAASVGEAAVKEFADGGTSYRSLTEFVRRCRDLAVLD
B5: SiCGT2: C-glycosyltransferase from millet, SEQ ID NO: 18 (protein, listed as Setaria italica)
chain: MSSPPPPNSTSDDCQGTAATPHIVLFPSAGMGHLVPFTRLAVALSAGHCCDVSLVTALPTVSSAESCHIAALFAAFPAVRRLDLRLAPLDASSEFPGADPFYVRYEALRRSTPLLLGPLLAGASASALVADIALASVAIPVARELRVPCYVFFTASATMLSFKAYFPTYLDANGGAGHSVGDVDVPGVCRVPRSSIPQALHDPDDIFTRQFVANGRALVAADGLLVNAFEAMEPEAVAALLGGSVVASLPPVFAVGPLMPLNLREAAEEQGNYRAWLDAQPPRSVVYVSFGSRKALARDQIRELAAWLEACGHRFLWVVKGAVVDRDDACELSDLLGEGFQRRVEGRGLVTKSWVEQDEVLRHPAVGLFVSHCGWNSVTEAAANGVPVLAWPRFADQRVNARVVARAGFGVWVERWSWEGEEAVVGAEEIAEQVVAAMGDQAVAEKAASVRDEAARAVADGGTSQQSLAEFVRRCRGGLAGPGTDLGRTWTARG
B6: ZmCGT: C-glycosyltransferase from maize, SEQ ID NO: 20 (protein)
chain: MAANGGDHTSARPHVVLLPSAGMGHLVPFARLAVALSEGHGCNVSVAAVQPTVSSAESRLLDALFVAAAPAVRRLDFRLAPFDESEFPGADPFFLRFEATRRSAPLLGPLLDAAEASALVTDIVLASVALPVARERGVPCYVLFTSSAAMLSLCAYFPAYLDAHAAAGSVGVGVGNVDIPGVFRIPKSSVPQALHDPDHLFTQQFVANGRCLVACDGILVNTFDAFEPDAVTALRQGSITVSGGFPPVFTVGPMLPVRFQAEETADYMRWLSAQPPRSVVYVSFGSRKAIPRDQLRELAAGLEASGKRFLWVVKSTIVDRDDTADLGGLLGDGFLERVQGRAFVTMGWVEQEEILQHGSVGLFISHCGWNSLTEAAAFGVPVLAWPRFGDQRVNAALVARSGLGAWEEGWTWDGEEGLTTRKEVAKKIKGMMGYDAVAEKAAKVGDAAAAAIAKCGTSYQSLEEFVQRCRDAERK
modifications: Zea mays
B7: SbCGT1: C-glycosyltransferase from Sorghum, SEQ ID NO: 6 (protein)
chain: MAPPATKSLGELDGGARPHVMFIPSAGMGHLLPFFRVIAALAAHDVVDISVVTVLPTVSAAEADHFASLFAALPRVSRVDFHLLPFDASSEFPGHDPFLLRWEALRRSAHLFRPLIAGAAGPRVSAVVTDVTLTSHVIPIAKELGVQCHVLFVSCATMLSLAAYTPVHLDKKNKGEHGPGVGVGVGVGDVDIPGVRRIPQSYLPQPLLDLNKLFTKQFIDNGREIINADGFLVNTFDALEPVALAALRDGKVVAGFPPVYAIGPLRSKEEEATTGSPPVAWLDEQPARSVVYVAFGNRNAVSLEQIREIAAGLEASGCRFLWVLKTTTVDRDDTAELTDDVLGEGFLERVQGRGLVTKAWVDQEAVLKHASVGLFLSHSGWNSVTEAAAAGVPLLAWPRGGDHRVNATVVVSGGVGVWMEQWSWDGEDWLVTGEEIGKKVKEVMSDAAVRARATRTGEEAAKAVAEGGTSYRSMQKFISSLKAHCSP
modifications: Sorghum bicolor
B8: PhCGT2: C-glycosyltransferase from moso bamboo, SEQ ID NO: 4 (protein, listed as Phyllostachys edulis)
chain: MASRAMPSSSDRTGGAPRVVLLPSAGMGHLVPFGRLAVALSSGHACDVSVVTVLPTVSSAESKHLQGLFDAFPAVRRLDLHLAPFDASEFSDADPFYVRYEAVRRSAPLLGPLLADADASALVADIALASVVIPVAKELLIPCYIFFTASATMFSLLAYFPTYLHSNAGHSIGDVDVPGVYRIPMSSIPQALHDPNNLFTQQFVANGRSLAEADGLLVNTFDAFEPEAVTALRHGTVAPGFPPVFALGPLSPVGFPAGEAARESGNYTTWLDAQPARSVVYVSFGSRKALLRDQLSELAAGLEASGCRFLWVVKGTVVDRDDDRELRELLGEVFLQRVNGRALVTKAWVEQEEVLKHPAVGLFISHCGWNSVTEATVSGVPVLAWPRFADQRVSAGVVARRGLGVWVERWSWEGEERVVTGDEIAEKVKSVLADETLRKNSTMVREAAAAAVATGGTSYRSLAKFVRRCST

Test: In vitro functional identification of C-glycosyltransferases by HPLC, phloretin as glycosyl receptor
Assay type: biochemical
Details: 0.1 mM phloretin, 0.3 mM UDP glucose, crude enzyme, 37° C., 2 h, HPLC (FIG. 1A)
Protocol: The recombinant plasmid was transformed into competent cells of Escherichia coli BL21 (DE3), and cultured overnight at 37° C. in solid LB medium (kanamycin 50 μg/mL). Single colony was transferred to a 2 mL LB liquid medium (containing 50 μg/ml kanamycin) and incubated overnight. The bacterial fluid was transferred to a new 100 ml LB liquid medium with antibiotics and incubated at 37° C. and 250 r/min until OD600 reached 0.5-0.6. The culture was cooled down to 16° C. in a water bath. Then inducer IPTG was added at a final concentration of 0.1 mM. The mixture was cultured at 16° C. for low temperature induction and 180 r/min for 20 h. The BL21(DE3) recombinant strain carrying the pET28a empty plasmid was used as a blank control, and the culture operation was the same as above. The bacteria were harvested by centrifugation (6000 r/min, 5 min), re-suspended in 1 mL of lysis buffer Buffer A (20 mM Tris-HCl, pH 8.0; 100 mM NaCl), and DNase was added to a final concentration of 5 μg/mL, Mg^2+ to a final concentration of 2 mM; protease inhibitor PMSF to a final concentration of 1 mM; the bacteria were incubated on ice for 30 min and then sonicated; refrigerated centrifugation (10,000 rpm, 30 min, 4° C.), filtered through a 0.2 µm filter membrane to obtain the supernatant crude enzyme solution, and added 20% glycerol for cryopreservation (−20° C.).
The in vitro enzyme catalytic assay system is 100 μL. The reaction system includes: 0.1 mM glycosyl receptor (phloretin or 2-hydroxynaringenin), 0.3 mM UDP glucose, 25 μL supernatant crude enzyme solution, and Buffer A is used to make up the volume to 100 μL, and react at 37° C. for 2 h. After the reaction was completed, an equal volume of methanol was added to terminate the reaction, and HPLC was used for product analysis. HPLC detection conditions: chromatographic column: reverse phase C18 column [SilGreen ODS column (ø 4.6×250 mm)], detection wavelength 280 nm; mobile phase: acetonitrile (0.1% formic acid)-water (0.1% formic acid) mixture gradient elution, with increased ratio from 5:95 to 100:0 within 0 to 20 min, and the flow rate was 1 mL/min.

Molecule | conversion of substrate phloretin to C-glycosylated product (Nothofagin) | 5′ C-glycosylation of 3′-glycosylated phloretin giving phloretin-3′,5′-C-diglucoside
B1 | can convert the substrate phloretin to a product having a shorter retention time | 
B2 | can convert the substrate phloretin to a product having a shorter retention time | can catalyze the glycosylation of the 3′-glycosylated phloretin at the 5′ position
B3 | can convert the substrate phloretin to a product having a shorter retention time | can catalyze the glycosylation of the 3′-glycosylated phloretin at the 5′ position
B4 | can convert the substrate phloretin to a product having a shorter retention time | 
B5 | can convert the substrate phloretin to a product having a shorter retention time | 
B6 | can convert the substrate phloretin to a product having a shorter retention time | can catalyze the glycosylation of the 3′-glycosylated phloretin at the 5′ position
B7 | can convert the substrate phloretin to a product having a shorter retention time | can catalyze the glycosylation of the 3′-glycosylated phloretin at the 5′ position
B8 | can convert the substrate phloretin to a product having a shorter retention time | 
